Values belong to the substance of their own block, whether it stands above or below them.
Assays:
GroES^7I25A1 (E. coli) [1] = biological target: GroES^7I25A1 (E. coli)
GroES^7I25A1 (E. coli) [2] = biological target: GroES^7I25A1 (E. coli); remark: listed apart in the source
GroESI25A (E. coli) = GroESI25A (E. coli) (UniProt P0A6F9); assay: MST; cochaperonin labelled with DyLight 650; unlabelled GroEL or GroEL^SR in a serial dilution of 15 samples; 50 mM TrisCl pH 7.5, 100 mM KCl, 10 mM MgCl2, 1 mM EDTA, 2 mM ADP, 0.5 mg/mL BSA; 30 min incubation
GroESL27A (E. coli) = GroESL27A (E. coli) (UniProt P0A6F9); assay: as above
GroES^7I25A1,2 (E. coli) [3] = assay: as above
GroES^7I25A1,3 (E. coli) [4] = assay: as above
GroES^7I25A1,4 (E. coli) [5] = assay: as above
[6] = biological target: GroES^7I25A_(1,4,6) (E. coli); assay: as above
[7] = biological target: GroES^7I25A_(1,4,7) (E. coli); assay: as above
GroES^7I25D1,3 (E. coli) = assay: MST; cochaperonin labelled with DyLight 650, unlabelled GroEL or GroEL^SR titrated (serial dilution of 15 samples), 30 min incubation; 50 mM TrisCl pH 7.5, 100 mM KCl, 10 mM MgCl2, 1 mM EDTA, 2 mM ADP, 0.5 mg/mL BSA; Monolith NT115, 80% LED, 40% IR-laser
GroES^7I25D1,4 (E. coli) = assay: as above
[8] = biological target: GroES^7I25D1,4,7 (E. coli); assay: as above
GroES^7I25A1 (E. coli) [9] = biological target: GroES^7I25A1 (E. coli); remark: listed apart in the source
GroES^7I25A1,2 (E. coli) [10] = biological target: GroES^7I25A1,2 (E. coli)
GroES^7I25A1,3 (E. coli) [11] = biological target: GroES^7I25A1,3 (E. coli)
GroES^7I25A1,4 (E. coli) [12] = biological target: GroES^7I25A1,4 (E. coli)
[13] = biological target: GroES^7I25A_(1,4,6) (E. coli)
[14] = biological target: GroES^7I25A_(1,4,7) (E. coli)
GroES^7 (E. coli) [15] = assay: MST; cochaperonin labelled with DyLight 650; unlabelled GroEL or GroEL^SR in a serial dilution of 15 samples; 50 mM TrisCl pH 7.5, 100 mM KCl, 10 mM MgCl2, 1 mM EDTA, 2 mM ADP, 0.5 mg/mL BSA; 30 min incubation
GroES^7I25A1 (E. coli) [16] = assay: as above
GroES^7 (E. coli) [17] = assay: MST; cochaperonin labelled with DyLight 650, unlabelled GroEL or GroEL^SR titrated (serial dilution of 15 samples), 30 min incubation; 50 mM TrisCl pH 7.5, 100 mM KCl, 10 mM MgCl2, 1 mM EDTA, 2 mM ADP, 0.5 mg/mL BSA; Monolith NT115, 80% LED, 40% IR-laser
GroES^7I25A1,2 (E. coli) [18] = assay: as above
GroES^7I25A1,3 (E. coli) [19] = assay: as above
GroES^7I25A1,4 (E. coli) [20] = assay: as above
GroES^7I25D1 (E. coli) = assay: as above
GroES^7I25D1,2 (E. coli) = assay: as above

Sequence of GroEL (P0A6F5 whole entry): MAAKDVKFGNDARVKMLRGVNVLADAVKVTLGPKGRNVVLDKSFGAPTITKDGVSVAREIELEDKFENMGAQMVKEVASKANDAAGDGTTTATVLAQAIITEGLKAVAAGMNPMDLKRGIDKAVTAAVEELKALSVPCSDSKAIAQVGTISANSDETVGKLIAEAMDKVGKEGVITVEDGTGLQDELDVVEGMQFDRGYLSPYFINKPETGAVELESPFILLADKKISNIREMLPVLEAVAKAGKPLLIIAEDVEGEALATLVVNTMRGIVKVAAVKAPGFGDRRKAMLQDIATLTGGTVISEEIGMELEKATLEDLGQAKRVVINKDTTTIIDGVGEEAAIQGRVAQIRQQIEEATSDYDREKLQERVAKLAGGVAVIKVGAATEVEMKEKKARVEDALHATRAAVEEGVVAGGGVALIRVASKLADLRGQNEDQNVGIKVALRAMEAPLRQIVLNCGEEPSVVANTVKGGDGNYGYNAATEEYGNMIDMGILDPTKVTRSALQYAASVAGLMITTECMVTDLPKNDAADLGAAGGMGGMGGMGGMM

ATPase activity of GroEL left in the presence of the variant (GroES^7I25A1 (E. coli) [1]): 53.2%
yield of GroEL-mediated MDH folding (GroES^7I25A1 (E. coli) [2]): 72%
Kd (GroESI25A (E. coli)): > 5000 nM
Kd (GroESL27A (E. coli)): > 5000 nM
fold reduction of affinity against GroES^7 (GroES^7I25A1,2 (E. coli) [3]): 2 fold
fold reduction of affinity against GroES^7 (GroES^7I25A1,3 (E. coli) [4]): 2 fold
fold reduction of affinity against GroES^7 (GroES^7I25A1,4 (E. coli) [5]): 2 fold
fold reduction of affinity against GroES^7 [6]: > 25 fold
fold reduction of affinity against GroES^7 [7]: > 25 fold
Kd (GroES^7I25D1,3 (E. coli)): 13.3 nM
Kd (GroES^7I25D1,4 (E. coli)): 9.58 nM
Kd [8]: 40 nM
Substance: GroEL (from UniProt P0A6F5 1-548) (natural protein)

inhibition of the ATPase of GroEL^SR (GroES^7I25A1 (E. coli) [9]): 80%
inhibition of the ATPase of GroEL^SR (GroES^7I25A1,2 (E. coli) [10]): 50%
inhibition of the ATPase of GroEL^SR (GroES^7I25A1,3 (E. coli) [11]): 50%
inhibition of the ATPase of GroEL^SR (GroES^7I25A1,4 (E. coli) [12]): 50%
inhibition of the ATPase of GroEL^SR [13]: 20%
inhibition of the ATPase of GroEL^SR [14]: 20%
Kd (GroES^7 (E. coli) [15]): 3.7 nM
Kd (GroES^7I25A1 (E. coli) [16]): 8.5 nM
fold reduction of affinity against GroES^7 (GroES^7I25A1,2 (E. coli) [3]): > 10 fold
fold reduction of affinity against GroES^7 (GroES^7I25A1,3 (E. coli) [4]): > 10 fold
fold reduction of affinity against GroES^7 (GroES^7I25A1,4 (E. coli) [5]): > 10 fold
Kd (GroES^7 (E. coli) [17]): 4.54 nM
Kd (GroES^7I25A1,2 (E. coli) [18]): 35 nM
Kd (GroES^7I25A1,3 (E. coli) [19]): 39.7 nM
Kd (GroES^7I25A1,4 (E. coli) [20]): 51.3 nM
Kd (GroES^7I25D1 (E. coli)): 25.6 nM
Kd (GroES^7I25D1,2 (E. coli)): 38.7 nM
Kd (GroES^7I25D1,3 (E. coli)): 71.9 nM
Kd (GroES^7I25D1,4 (E. coli)): 73.1 nM
Substance: GroEL^SR (GroEL R452A/E461A/S463A/V464A) (from UniProt P0A6F5 1-548) (natural protein)

Source: paper PMC5575113
